In assay [1] the target is Globodera pallida Clade 3 GS-like effector Gpa-GSS24 (Globodera pallida). As to the kind of experiment: SEC; S200 analytical gel filtration column; purified proteins migrate between the 150 kDa and 75 kDa protein standards, at a mass consistent with a homodimer (50 kDa per subunit). Background: SEC sorts molecules by how far they enter the pores of the column.
Assay [2] concerns the target T1, St-GSS1 (Solanum tuberosum, UniProt M1CSC4).
T1 construct: gene LOC102589405; His6-SUMO tag cleaved by 3C protease (pOPINS3C); E. coli SHuffle; homodimer, about 50 kDa per subunit
T1 sequence (M1CSC4 1-483): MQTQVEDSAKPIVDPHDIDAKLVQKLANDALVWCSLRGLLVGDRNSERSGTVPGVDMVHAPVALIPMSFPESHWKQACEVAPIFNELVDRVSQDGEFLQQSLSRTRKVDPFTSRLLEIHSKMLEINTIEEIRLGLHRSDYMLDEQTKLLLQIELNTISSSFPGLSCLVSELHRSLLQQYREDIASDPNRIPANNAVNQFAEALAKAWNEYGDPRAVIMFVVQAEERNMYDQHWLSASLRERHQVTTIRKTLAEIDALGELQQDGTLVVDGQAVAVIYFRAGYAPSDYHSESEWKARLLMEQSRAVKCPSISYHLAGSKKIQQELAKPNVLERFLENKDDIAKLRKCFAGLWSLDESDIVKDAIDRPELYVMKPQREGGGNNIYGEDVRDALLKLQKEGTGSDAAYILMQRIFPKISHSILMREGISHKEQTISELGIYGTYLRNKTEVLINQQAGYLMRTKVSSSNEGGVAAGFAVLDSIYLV
Description: malachite green phosphate release from ATP. Type of assay: biochemical. Particulars: glycine, 20 mM MgCl2, 5 mM DTT, 100 mM HEPES pH 7.5, 30 °C.

For assay [3], the target named is T2, Gpa-GSS1 (Globodera pallida, UniProt A0A183BS86).
T2 construct: full-length; His6-SUMO tag cleaved by 3C protease (pOPINS3C); E. coli SHuffle; homodimer, about 50 kDa per subunit
Description: malachite green phosphate release from ATP. Type of assay: biochemical. The following applies: glycine, 20 mM MgCl2, 5 mM DTT, 100 mM HEPES pH 7.5, 30 °C.

In assay [4] the target is Globodera pallida Clade 1 glutathione synthetase Gpa-GSS1 (Globodera pallida). As to the kind of experiment: SEC; S200 analytical gel filtration column; purified proteins migrate between the 150 kDa and 75 kDa protein standards, at a mass consistent with a homodimer (50 kDa per subunit).
Assay [5] addresses Globodera pallida Clade 3 GS-like effector Gpa-GSS17 (Globodera pallida). Described as above.
The target in assay [6] is Globodera pallida Clade 2 glutathione synthetase Gpa-GSS5 (Globodera pallida). Described as above.
In assay [7] the target is Globodera pallida Clade 3 GS-like effector Gpa-GSS30 (Globodera pallida). The description is as above.
For assay [8], the target named is Globodera pallida Clade 3 GS-like effector Gpa-GSS12 (Globodera pallida). The description is as above.
Assay [9] has as its target Globodera pallida Clade 3 GS-like effector Gpa-GSS22 (Globodera pallida). Described as above.
Assay [10] has as its target Solanum tuberosum glutathione synthetase St-GSS1 (Solanum tuberosum). The assay is described as above.

The term stoichiometry N denotes the number of molecules, sites or subunits per partner or assembly. Regarding “Globodera pallida Clade 3 GS-like effector Gpa-GSS24 (natural protein)”, the stoichiometry N in assay [1] was determined as 2.
For the compound `N[C@@H](CCC(=O)N[C@@H](CS)C(=O)O)C(=O)O` [γ-EC], the Km result in assay [2] and in assay [3] was “The Km for γ-EC for canonical GS enzymes” throughout.
As for “Globodera pallida Clade 1 glutathione synthetase Gpa-GSS1 (enzyme)”, the stoichiometry N in assay [4] was determined as 2.
Consider “Globodera pallida Clade 3 GS-like effector Gpa-GSS17 (natural protein)”, for which the stoichiometry N in assay [5] turned out to be 2.
With “Globodera pallida Clade 2 glutathione synthetase Gpa-GSS5 (enzyme)”, in assay [6], the stoichiometry N was 2.
In [7], “Globodera pallida Clade 3 GS-like effector Gpa-GSS30 (natural protein)” returned a stoichiometry N of 2.
“Globodera pallida Clade 3 GS-like effector Gpa-GSS12 (natural protein)” registered a stoichiometry N in assay [8] of 2.
Turning to “Globodera pallida Clade 3 GS-like effector Gpa-GSS22 (natural protein)”, the stoichiometry N in assay [9] was found to be 2.
In assay [10], “Solanum tuberosum glutathione synthetase St-GSS1 (enzyme)” returned a stoichiometry N of 2.

(Values after PMC5919673, “Effector gene birth in plant parasitic nematodes: Neofunctionalization of a housekeeping glutathione synthetase gene” (PLoS Genetics, 2018).)
